The record followed here is the DeepSol protein solubility set.

The data set in a line: soluble on expression in E. coli; label from the status in PepcDB or PDB records.
In the case of “TIVYDKDGDKAGELSSTDATFVSIDKISKNLQNAVVSIEDRRFYEHKGFDLKGIARAGVNLITNGGISGGGSTITQQLAKNALLTQEQTFTRKAKEIFMAREIEKTYSKDEIMEMYLNRSYFGNGEWGVENASLKYFGKPAADLNIPEAATIAGLLQAPSAYDPYQHI”, the “soluble on expression in E. coli” value is recorded as “not soluble”.

On to “MSLITDLFKRRIHQMEEKKKKNIGFNIIKSDPTDGHGGFGGGSLSLDNVSPVFVDVEAGDAHVDIGAMHARSTVEKGIKFLTNQEDVPNGKPYWLVWVTIDRKQEGPYYAGVTACFMTVDREIRRGYKLLPEHVNRLDKSIKRHIIVDHMDDKSKGILADFLKNHDMGMWERAEDQLKKDLASSEGHHHHHH”, for which the “soluble on expression in E. coli” value is given as “soluble”.

As to “MKKFIGSVLTTTLILGGCSAMENESNKDTNTETKSVPEEMEASKYVGQGFQPPAEKDAIEFAKKHRKEFEKVGEQFFKDNFGLKVKATNVVGKDDGVEVYVHCEDHGIVFNASLPLYKDAIHQKGSMRSNDNGDDMSMMVGTVLSGFEYRAQKEKYDNLYKFFKENEKKYQYTGFTKEAINKTQNVGYQNEYFYITYLSRNLKEYRKYYEPLIHKNDKEFKEGMQQARKELDYTANTDAVSTLFSTKKNFTKDNTVDDVIELSNKLKEKPNMPQKSQVTIQLGKSSINTKKPFYDDINPIEGLEHHHHHH”, the “soluble on expression in E. coli” value was “not soluble”.

Regarding “MGNRSSSHYPPPPHWMHQRTSYSTTTSPYPEAKQRPIAPGAFAEPYMHHNPHHPQSKAQMRRSMISLNADSGYMGGPDSERLRQMRGSRMSLNQIDFEPAMMPPPRILIPPDAKTLKKLEKMEKKHQKLMKKLGARGIPIQMPVPPPPPMHPMYSRAISYDDLHRMHEAPEIDVRMRQRDWRTSDERRGLPTRRETQSQYVKHNYSSTNRRAELNGSLASSSPMTSSEEGGHSSDPWNTSSISSGKRDIISPPMYSSTPHHHNHHNHQQLQHHQVIKSPQPPITKTIEVKVERSEKVEQQVSEPTKRAPPTAAQTASSTSSRIQHNQTLNNSNATYAQPIIRRQPSYGSRSSSIATSQMRCDQSEIDFSWVNEEEDKLKRESKRIDSLPEFYFGMDPPPVPSDNEKENDEKRNRRKSSVLEKTAAFEIEARRNDRKEPSFLSRSSHQLLTTSEIPPADYSPLSIHTKEIGGPAERRIYRIQKQQQQHSSEDRRYRSSIAF”, the “soluble on expression in E. coli” value is “not soluble”.

For the sequence “TRAMEEALFQHFMHQKLGIAYAIHKPFPFFEGLLDNSIITKRMYMESLEACRNLIPVSRVVHNILTQLERTFNLSLLVTLFSQINLREYPNLVTIYRSFKRVGASY”, the “soluble on expression in E. coli” value was “not soluble”.

As to “ISDPVELLKRAEKKGVPSSGFMKLFSGSDSYKFEEAADLCVQAATIYRLRKELNLAGDSFLKAADYQKKAGNEDEAGNTYVEAYKCFKSGGNSVNAVDSLENAIQIFTHRGQFRRGANFKFELGEILENDLHDYAKAIDCYELAGEWYAQDQSVALSNKCFIKCADLKALDGQYIEASDIYSKLIKSSMGNRLSQWSLKDYFLKKGLCQLAATDAVAAARTLQEGQSEDPNFADSRESNFLKSLIDAVNEGDSEQLSEHCKEFDNFMRLDKWKITILNKIKESIQQQEDDLL”, the “soluble on expression in E. coli” value is recorded as “soluble”.

As for “MSLREINMLRNISSCLFPHISTITSPNHYLSEWDDWEKQGLPEEQRTEAVRRLRACLTSKGHKLDLRALALSSLPVLPACIKKLDVSCNKLTILTDLPENIKELIARDNFLTHISALPHYLITLDVSENQLENLPLLPDTIKSLSAEYNRLSTLPSLPLNLKKLEVRNNELQTLPSLPSNLKILKVAHNHLTELPPLPRRLQLLFAYSNRLSNLPNIQENIIMRRFFYFENNQITTIPTNLFRLDPHITIEIANNPLSDQTLLFLIQQTSVPNFNGPQFRISLSDEGHHHHHH”, the “soluble on expression in E. coli” value was “soluble”.

For the sequence “MAHHHHHHMNLKTKLQKRRDEVNTCLCIGLDPDEADIKSFMQSEKQNGYQSIKKNLSNHGSSSQGGLFTPQVGGTMLLAENPPKEVQEKDEFFYFFNHFCFYIINETKQYALSYKMNFAFYLPYGSLGVDVLKNVFDYLHYLDVPTILDIKMNDIGNTVKHYSKFIFHYLRSDSCTANIYMGTHMLRDICLDEECKRHYSTFVLIKTTNPDSHIFQNRLSLDGKEAYVVIADEAQKMAKQLHLEENGEFVGFVVGANCYDEMKKIRELFPDCYILAPGVGAQKGDLRKTLCNGYSKNYERLLINVGRAITKSGNPQQAAREYYHQIKEILAELRE”, the “soluble on expression in E. coli” value was “soluble”.

Take “MCLAVPGKVIEVNGPVAVVDFGGVKREVRLDLMPDTKPGDWVIVHTGFAIEKLDEKKAMEILEAWAEVEKAMEGF”: the “soluble on expression in E. coli” value is given as “soluble”.
